Biological target: microtubule (sea-urchin sperm axonemes) (sea urchin (sperm axonemes))
Assay: single-molecule fluorescence imaging

duration time on MT (short stop mode) | duration time on MT (diffusive mode) | Substance
1.47 s | – | 2T-K490CLM, two-tail stalk-truncated cysteine-light mutant kinesin (motility and ATPase experiments) (from UniProt P33176 1-490; P33176 904-963)
– | 1.73 s | tail-GFP (kinesin tail 904-963 fused to EGFP) (from UniProt P33176 904-963) (domain or fragment)

From publication PMC4629677
